Reference: article PMC6511879 (Nucleic Acids Research, 2019)

What was measured:
[1] = molecular target: T1, CtKti12 (also ChKti12), full length (Thermochaetoides thermophila, UniProt G0SHI1); conditions: 1 mM ATP; 2 mM MgCl2; pH 7.5
T1 sequence (G0SHI1 1-378): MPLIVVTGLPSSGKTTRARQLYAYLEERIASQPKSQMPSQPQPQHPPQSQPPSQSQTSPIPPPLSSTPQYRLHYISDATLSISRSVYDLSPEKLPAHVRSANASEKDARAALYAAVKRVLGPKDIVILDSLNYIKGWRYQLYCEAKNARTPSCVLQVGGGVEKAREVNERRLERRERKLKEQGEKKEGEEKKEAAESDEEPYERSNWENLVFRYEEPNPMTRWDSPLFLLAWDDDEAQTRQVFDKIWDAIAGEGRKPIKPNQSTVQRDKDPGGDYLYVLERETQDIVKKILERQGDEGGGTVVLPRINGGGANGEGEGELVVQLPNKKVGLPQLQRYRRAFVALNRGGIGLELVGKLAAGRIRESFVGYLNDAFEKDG

CtKti12NTD = molecular target: T2, CtKti12NTD (Thermochaetoides thermophila, UniProt G0SHI1); assay: X-ray crystal structure, […] Å; assay type: binding; conditions: bound as ADP·AlF3 with Mg2+, transition state mimic; nucleotide site
T2 sequence (G0SHI1 2-252): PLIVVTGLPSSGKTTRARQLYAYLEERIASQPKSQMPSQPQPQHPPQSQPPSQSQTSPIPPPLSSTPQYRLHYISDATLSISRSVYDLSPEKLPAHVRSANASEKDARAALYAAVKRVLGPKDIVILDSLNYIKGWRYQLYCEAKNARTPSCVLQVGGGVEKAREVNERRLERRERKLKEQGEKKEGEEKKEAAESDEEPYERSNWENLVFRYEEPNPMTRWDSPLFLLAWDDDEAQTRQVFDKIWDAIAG

Full length GST-ScElp1 = molecular target: T3, Full length GST-ScElp1 (Saccharomyces cerevisiae, UniProt Q06706 1-1349); assay: pull-down
T3 sequence (looked up): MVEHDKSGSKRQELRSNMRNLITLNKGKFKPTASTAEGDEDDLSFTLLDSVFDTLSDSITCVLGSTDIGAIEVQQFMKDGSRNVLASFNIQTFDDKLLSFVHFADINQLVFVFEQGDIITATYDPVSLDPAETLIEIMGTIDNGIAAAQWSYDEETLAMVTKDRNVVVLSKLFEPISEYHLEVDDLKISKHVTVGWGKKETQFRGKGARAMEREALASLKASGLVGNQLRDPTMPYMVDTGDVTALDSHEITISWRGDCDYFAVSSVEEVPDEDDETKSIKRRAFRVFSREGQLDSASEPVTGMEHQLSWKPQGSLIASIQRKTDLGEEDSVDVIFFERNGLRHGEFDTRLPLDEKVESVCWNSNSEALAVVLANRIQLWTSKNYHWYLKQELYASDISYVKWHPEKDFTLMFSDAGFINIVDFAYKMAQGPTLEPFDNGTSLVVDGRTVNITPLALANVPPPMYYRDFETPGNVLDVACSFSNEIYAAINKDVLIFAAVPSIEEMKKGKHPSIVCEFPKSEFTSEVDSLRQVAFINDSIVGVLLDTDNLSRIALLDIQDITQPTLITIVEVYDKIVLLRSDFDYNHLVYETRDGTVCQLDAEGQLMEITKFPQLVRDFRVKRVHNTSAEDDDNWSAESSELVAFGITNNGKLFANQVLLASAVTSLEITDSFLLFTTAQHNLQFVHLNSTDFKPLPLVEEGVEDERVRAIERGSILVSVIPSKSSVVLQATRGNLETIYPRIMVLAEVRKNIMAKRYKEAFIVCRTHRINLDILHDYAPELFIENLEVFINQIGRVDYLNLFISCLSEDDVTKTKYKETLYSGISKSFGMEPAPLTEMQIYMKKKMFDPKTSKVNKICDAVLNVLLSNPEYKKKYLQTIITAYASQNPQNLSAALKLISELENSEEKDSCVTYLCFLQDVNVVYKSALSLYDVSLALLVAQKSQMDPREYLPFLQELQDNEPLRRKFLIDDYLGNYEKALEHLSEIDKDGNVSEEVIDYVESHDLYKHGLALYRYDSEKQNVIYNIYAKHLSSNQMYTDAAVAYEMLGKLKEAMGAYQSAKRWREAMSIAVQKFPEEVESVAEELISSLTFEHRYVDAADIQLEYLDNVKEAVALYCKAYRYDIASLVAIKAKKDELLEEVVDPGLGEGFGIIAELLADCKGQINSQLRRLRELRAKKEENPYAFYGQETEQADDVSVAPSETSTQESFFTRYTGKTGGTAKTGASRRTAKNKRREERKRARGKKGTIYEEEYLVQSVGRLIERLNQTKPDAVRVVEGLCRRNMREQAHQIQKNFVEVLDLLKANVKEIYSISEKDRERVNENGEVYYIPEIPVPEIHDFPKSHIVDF

[2] = molecular target: T4, GST-ScElp1 first WD40 domain (aa 42-431) (Saccharomyces cerevisiae, UniProt Q06706 42-431); assay: pull-down
T4 sequence (looked up): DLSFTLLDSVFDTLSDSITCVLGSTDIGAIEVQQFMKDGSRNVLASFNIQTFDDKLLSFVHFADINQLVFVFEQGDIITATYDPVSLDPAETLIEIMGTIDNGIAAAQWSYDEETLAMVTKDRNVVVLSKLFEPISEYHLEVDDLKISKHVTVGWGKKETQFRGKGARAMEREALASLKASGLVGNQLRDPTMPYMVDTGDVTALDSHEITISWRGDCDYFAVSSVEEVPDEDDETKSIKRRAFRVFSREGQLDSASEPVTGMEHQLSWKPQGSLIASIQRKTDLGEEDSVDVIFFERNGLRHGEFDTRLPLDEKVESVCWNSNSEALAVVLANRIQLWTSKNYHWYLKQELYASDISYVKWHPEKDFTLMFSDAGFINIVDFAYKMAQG

[3] = molecular target: T5, GST-ScElp1 first and second WD40 domains (aa 1-734) (Saccharomyces cerevisiae, UniProt Q06706 1-734); assay: pull-down
T5 sequence (looked up): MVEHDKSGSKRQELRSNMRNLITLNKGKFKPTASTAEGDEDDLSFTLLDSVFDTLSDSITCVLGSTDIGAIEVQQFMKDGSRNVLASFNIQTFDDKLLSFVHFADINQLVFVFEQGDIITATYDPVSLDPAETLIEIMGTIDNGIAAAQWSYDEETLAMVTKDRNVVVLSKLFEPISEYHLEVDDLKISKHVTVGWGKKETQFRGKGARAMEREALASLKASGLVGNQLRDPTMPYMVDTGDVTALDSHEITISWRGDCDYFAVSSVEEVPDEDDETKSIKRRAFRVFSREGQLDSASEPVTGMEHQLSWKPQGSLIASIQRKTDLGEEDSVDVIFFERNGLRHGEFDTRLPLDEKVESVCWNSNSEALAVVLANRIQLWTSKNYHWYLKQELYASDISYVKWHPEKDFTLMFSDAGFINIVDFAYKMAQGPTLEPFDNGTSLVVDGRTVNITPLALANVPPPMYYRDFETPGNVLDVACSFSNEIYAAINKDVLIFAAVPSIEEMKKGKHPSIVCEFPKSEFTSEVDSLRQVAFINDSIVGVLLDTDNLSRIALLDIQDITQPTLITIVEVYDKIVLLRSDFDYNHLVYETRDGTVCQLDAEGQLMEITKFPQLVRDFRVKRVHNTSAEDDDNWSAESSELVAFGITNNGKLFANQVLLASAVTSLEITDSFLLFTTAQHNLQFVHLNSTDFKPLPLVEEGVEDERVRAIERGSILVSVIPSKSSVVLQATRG

`Nc1ncnc2c1ncn2[C@@H]1O[C@H](COP(=O)(O)OP(=O)(O)OP(=O)(O)O)[C@@H](O)[C@H]1O` [ATP] was tested, and the dTm [1] was “addition of ATP contributed to an increased thermostability of CtKti12 and ScKti12 in vitro”.

`Nc1ncnc2c1ncn2[C@@H]1O[C@H](COP(=O)(O)OP(=O)(O)O)[C@@H](O)[C@H]1O` [ADP] was tested, and the “X-ray crystal structure, 2.4 Å” value (CtKti12NTD) was “We solved the structure of CtKti12NTD in complex with ADP·AlF3”.

B1: ScKti12-6xHis (Saccharomyces cerevisiae Kti12, wild type) (natural protein)
chain: MPLVLFTGYPCSGKTTLAKHLVQLLQSKIDATPSLSKYSITYHSDESLGIKHSDYITSQDERKLRSEIISAVKRDLSKNKIVIVDSLNYIKGFRYQLHCEVKNLSTTFCVIQTLCPPETIFEWNKTSNPNPWEPELLNQLIQRYEEPNSSNRWDSPLFAILTPQDNITDYIDDICKVVFQTSKSAKNSGHNDPLSKGLQKPNSATVLKPASQSNFIQVLDIETSKIIKTIMNHIKSLTSIGGVSNGTRVIVSEGITDINDDGCFFVDLPIGNVVTLAQLQRLKRQFINFNKLRDIDQDRIGPLFADYLNKNLN
B1: binds (Full length GST-ScElp1); binds [2]; binds [3].
